Laboratory results reported in the supplement of paper PMC9170038.

System: MS2 coat protein
Experiment: apparent KD of MS2 coat protein; designed switch direction (-1 OFF switch, 1 ON switch): -1; higher = weaker reporter binding
How it was run: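 Designed RNA switches were transcribed on Illumina chips by stalled E. coli RNA polymerase and titrated with SNAP-549-labelled MS2 coat protein from 0.7 or 1.5 nM, doubling to 3 µM. Step length ran from 0.8–1.5 h at the lowest concentration to 10–20 min at the highest. The apparent KD is the median over clusters for each design, from curve-fitted normalised cluster fluorescence.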

[1] = Eterna round: R95, input ligand: microRNA oligo, concentration not stated
[2] = input ligand: microRNA oligo, concentration not stated

Sequence | apparent KD of MS2 coat protein (input ligand: FMN 200 uM) [nM] | apparent KD of MS2 coat protein (input ligand: none) [nM] | apparent KD of MS2 coat protein [1] [nM] | apparent KD of MS2 coat protein [2] [nM]
ACAAGCUUUUUCAUAUCUUACAUGAGGAUCACCCAUGUUUUUGCAAUUAUGUUUGGGCUCUUUUGAGCUCGUCUUAU [JR_STOV1_Sub048] (Eterna round: R97, puzzle: Sensor, turn-off variant 1) | 13.5 | 14.4 |  | 
UAAAAUUUAGGAUAUGCGUGAGAUAGAGUACGAUGAGCUGCACAUGAGGAUCACCCAUGUAGAAGGAAAUUUUA [-11, -8.6 kcal, 36% A] (Eterna round: R97, puzzle: Exclusion 2) | 58 | 31.2 |  | 
GACAAGGGAGGAUAUGCACAAGGGAUAUCUGACAUGCCGAUACAUGAGGAUCACCCAUGUAGAAGGCCCGAAUA [Oneser] (puzzle: Exclusion 2) |  |  | 12.5 | 
GAGGAUAGAGGAUAUGCAUAGAUACGGAUUCGUGUAGUACUACAUGAGGAUCACCCAUGUAGAAGGCUGUCCUG [JL-ex2-2.01 mat747 mod] (puzzle: Exclusion 2) |  |  | 12.9 | 
AACUCACAUGAGGAUCACCCAUGUGAGGAUAUGGAUUCGCUGGCCGUAGCCAGUGGAUCCAGAAGGCGCAUGAU [JL-ex1-4.10] (Eterna round: R97, puzzle: Exclusion 1) | 23.1 | 21.2 |  | 
CCUAUGUGAGGAUAUCACUGGUCUUCUCACUGGAUGAUUAGUGAGAAGGCACAUGAGGAUCACCCAUGUCGGUG [Ex4 - 3 - 51] (Eterna round: R96, puzzle: Exclusion 4) | 633 |  |  | 482
GAUCCGUUAGGAUAUCGUGAGGACAGCUAGUCUUAUUAACACGAGAAGGAACAUGAGGAUCACCCAUGUGGUAA [Eternabot (L1) Solution 14] (Eterna round: R97, puzzle: Exclusion 4) | 279 | 62.3 |  | 
AACAAGUCAGGAUAUGCCCUGAUAGACUUGAGGAUCACCCAAGUAAGUCUAUCUGGCUAAGCAGAAGGGACAAAAG [Usrabe] (Eterna round: R97, puzzle: Exclusion 5) | 643 | 649 |  | 
UAGUGGCAAGGAUAUACAGAGGAGAGGAUUGCAAGAGGUGGACAUGAGGAUCACCCAUGUAGAAGGUGCAGAGA [JR_Exclu2_Sub022] (puzzle: Exclusion 2) |  |  | 252 | 
CCAUGUCCAGAGGAUAUGUAGCGGAUAAACGCAACAGAAGGCUGGACAUGAGGAUCACCCAUGUGCGCCUUCCA [Letion] (Eterna round: R97, puzzle: Exclusion 6) | 35.7 | 106 |  | 
UGAGCUACAGGAUAUAUGUGGCGACCGUGAGGUCGAAGGUUACAUGAGGAUCACCCAUGUAGAAGGGUAGUUCU [Mat - Exclusion 2 - JL Mod - D20] (Eterna round: R97, puzzle: Exclusion 2) | 311 | 284 |  | 
GAGCCUAAUGUAGGAUAUCGAGGUCGGUGACGUCGAGAAGGACAUGAGGAUCACCCAUGUCGUAGCGGCGGGAACGCUGCUACG [first try -36 kcal] (Eterna round: R96, puzzle: Exclusion NG 1) | 82.9 | 274 |  | 147
GAGUGACAUGAGGAUCACCCAUGUGAGGAUAUCGGACGGACCAAAUUAACAAUAAUUGCGAGAAGGCACAUCGG [Exclusion 1 V14] (puzzle: Exclusion 1) |  |  | 52.1 | 
AUAAUGUCAGGAUAUCGAGACUACUGCCUCGGCAGUAGUCUCGAGAAGGGACAUGAGGAUCACCCAUGUGAUCA [E4/1-A2] (Eterna round: R97, puzzle: Exclusion 4) | 831 | 45.2 |  | 
CGCUAAGCUAUGCUCGUCAACAUGAGGAUCACCCAUGUGCACUACGGAAGGUACACAACGUACCAAAGACCUCAAAG [Eternabot (Original) Solution 27] (Eterna round: R97, puzzle: Sensor, turn-off variant 1) | 185 | 119 |  | 
GGUGAAGCAGGAUAUGUAUCGAUAUACAUGAGGAUCACCCAUGUCAUGUUUGAAUCGCAUAUAGAAGGGCUUCACC [Exclusion 5 (FMN-MS2 slide)] (Eterna round: R97, puzzle: Exclusion 5) | 58.1 | 20.8 |  | 
ACAUGUAUUGCAGGAUAUGGGACACAUGAGGAUCACCCAUGUGACUACAUGUCAUACCACGGGUCUCAGAAGGGUAUGUACAUG [Ex NG2 #40] (Eterna round: R96, puzzle: Exclusion NG 2) | 28.9 | 23 |  | 15.1
AAGAAGAUCAAAGGAUAUGGAGCUGAAACGGCGCUAGAAGGUUGUCUAGUGUAACAUGAGGAUCACCCAUGUAGGGACCUCUAA [AK ExNG1-V2-2] (Eterna round: R96, puzzle: Exclusion NG 1) | 562 | 644 |  | 385
